{"source": "paper PMC5082758", "about": "“A Novel Pathway for Metabolism of the Cardiovascular Risk Factor Homoarginine by alanine:glyoxylate aminotransferase 2” (Scientific Reports, 2016)", "key": {"purified protein [1]": {"substrate": "C[C@H](N)C(=O)O", "experiment": "purified protein", "settings": "amino donor, co-substrate 1 mM glyoxylate, PLP added (200 μM in methods, 100 μM in Figure 3 legend), potassium phosphate pH 8, 0.15 M NaCl, 25 °C"}, "purified protein [2]": {"substrate": "N=C(N)NCCCC[C@H](N)C(=O)O", "experiment": "purified protein", "format": "biochemical, Homo sapiens", "settings": "amino donor, co-substrate 1 mM pyruvate, PLP added (200 μM in methods, 100 μM in Figure 3 legend), potassium phosphate pH 8, 0.15 M NaCl, 25 °C"}}, "data": [{"protein": "human alanine:glyoxylate aminotransferase 2 (AGXT2) (Homo sapiens) (protein, C-terminal FLAG fusion under CAG promoter; tag kept) LHTKPRMPPCDFMPERYQSLGYNRVLEIHKEHLSPVVTAYFQKPLLLHQGHMEWLFDAEGSRYLDFFSGIVTVSVGHCHPKVNAVAQKQLGRLWHTSTVFFHPPMHEYAEKLAALLPEPLKVIFLVNSGSEANELAMLMARAHSNNIDIISFRGAYHGCSPYTLGLTNVGTYKMELPGGTGCQPTMCPDVFRGPWGGSHCRDSPVQTIRKCSCAPDCCQAKDQYIEQFKDTLSTSVAKSIAGFFAEPIQGVNGVVQYPKGFLKEAFELVRARGGVCIADEVQTGFGRLGSHFWGFQTHDVLPDIVTMAKGIGNGFPMAAVITTPEIAKSLAKCLQHFNTFGGNPMACAIGSAVLEVIKEENLQENSQEVGTYMLLKFAKLRDEFEIVGDVRGKGLMIGIEMVQDKISCRPLPREEVNQIHEDCKHMGLLVGRGSIFSQTFRIAPSMCITKPEVDFAVEVFRSALTQHMERRAK", "values": [{"measurement": "Km", "setting": "purified protein [1]", "value": "25 ± 3", "unit": "mM"}, {"measurement": "kcat", "setting": "purified protein [1]", "value": "0.142 ± 0.0083", "unit": "s⁻¹"}, {"measurement": "kcat/Km", "setting": "purified protein [1]", "value": 5.67, "unit": "M⁻¹ s⁻¹"}, {"measurement": "Km", "setting": "purified protein [2]", "value": "24 ± 3", "unit": "mM"}, {"measurement": "kcat", "setting": "purified protein [2]", "value": "0.0188 ± 0.00067", "unit": "s⁻¹"}, {"measurement": "kcat/Km", "setting": "purified protein [2]", "value": "0.783 ± 0.1", "unit": "M⁻¹ s⁻¹"}]}]}
